{"source": "patent US12365710B2", "about": "“HMGB1 protein derivatives for the removal of biofilms” (RESEARCH INSTITUTE AT NATIONWIDE CHILDREN'S HOSPITAL, priority 2018, dated 2025)", "molecules": {"B1": {"name": "B-linker Box: HMGB1 B Box with N- and C-terminal linker (80-179; 80 to 176 in b258), 97 amino acid (protein, UniProt P09429 80-179, looked up, fragment)", "chain": "PPKGETKKKFKDPNAPKRPPSAFFLFCSEYRPKIKGEHPGLSIGDVAKKLGEMWNNTAADDKQPYEKKAAKLKEKYEKDIAAYRAKGKPDAAKKGVVKAE"}, "B2": {"name": "mHMGB1: engineered C45S variant of full length rHMGB1 that mimics the reduced form of HMGB1 (protein, UniProt P09429 1-215, looked up, variant C45S)", "chain": "MGKGDPKKPRGKMSSYAFFVQTCREEHKKKHPDASVNFSEFSKKSSERWKTMSAKEKGKFEDMAKADKARYEREMKTYIPPKGETKKKFKDPNAPKRPPSAFFLFCSEYRPKIKGEHPGLSIGDVAKKLGEMWNNTAADDKQPYEKKAAKLKEKYEKDIAAYRAKGKPDAAKKGVVKAEKSKKKKEEEEDEEDEEDEEEEEDEEDEDEEEDDDDE", "modifications": "full-length", "notes": "engineered C45S variant of full length rHMGB1 that mimics the reduced form of HMGB1"}}, "key": {"serum TNF-alpha (TNF-α) [1]": {"test_system": "serum TNF-alpha (TNF-α)", "assay_type": "in vivo, mice", "settings": "24 h; for serum TNF elicited on their own: 0.2 nmol endotoxin free protein i.p., naive mice; for additional pro-inflammatory signaling in LPS-primed mice: 0.2 nmol i.p. with LPS 5 mg/kg", "description": "FIGS. 7A-7G: HMGB1 promotes clearance of S. cenocepaca from mice without inducing sepsis. C57BL/6 mice were challenged with 10^7 CFU intratracheally, and either simultaneously (prevention) or 24 h later (treatment) received 0.2 nmol of HMGB1 valiant. (FIG. 7A) Aggregates of B. cenocepacia were visible by fluorescence microscopy in lung sections probed with an α-B. cenocepacia antibody. For prevention, (FIG. 7B) bronchoalveolar lavage (BAL) collected 18 h post-inoculation (hpi) was analyzed for CFU. (FIG. 7C) Neutrophils in BAL were quantified by differential cell counting. (FIG. 7D) Lung tissue collected 72hpi was fixed, embedded, sectioned, and stained with hematoxylin & eosin (10× magnification). For treatment, 72hpi (FIG. 7E) CFUs were quantified in BAL. (FIG. 7F) Neutrophil recruitment was analyzed 24 h after intraperitoneal (i.p.) administration of HMGB1 valiants by fluorescence-activated cell sorting of peritoneal lavage stained with α-CD45, α-CD11b, and αLy-6G. (FIG. 7G) Serum TNF-α. was measured by ELISA in mice injected i.p. with 0.2 nmol HMGB1 valiants, 5 mg/kg LPS, or both. LoD: limit of detection. Bars represent SD. *P<0.05.\nMice were monitored for 24 h for signs of sepsis, then serum TNF-alpha (TNF-α) levels were measured by ELISA as a surrogate for sepsis induction. […] It has been reported, that compared to our doses, >450-fold for B Box alone, or 4 doses of 2-fold greater amounts of rHMGB1 in 40 h with lipopolysaccharide (LPS)-primed mice20 are required to induce sepsis. In addition, these endotoxin-free polypeptides were tested for anti-biofilm activity in vitro as described above and found to maintain full function against UPEC and Bc biofilms (data not shown)."}, "serum TNF-alpha (TNF-α) [2]": {"test_system": "serum TNF-alpha (TNF-α)", "settings": "cited from earlier work"}, "[3]": {"test_system": "biofilms present in CF sputum", "assay": "disruption of CF sputum (optical density of surrounding media)", "settings": "CF sputum suspensions in PBS, 37° C.; compared with Pulmozyme and anti-DNABII", "description": "FIGS. 10A-10B: HMGB1 In specimens from biofilm-associated diseases. (FIG. 10A) Sections of OCT-embedded mucosal biomass from an NTHI-infected chinchilla middle ear were co-labeled for HMGB1 and DNABII protein for immunofluorescence microscopy. Double stranded eDNA was labeled with DAPI (white). (FIG. 10B) CF sputum incubated with antibiofilm treatments (PBS, 1:10 rabbit a-1HFEc, serum, 100 U/ml Pulmozyme® (DNase), 1 mM rHMGB1) at 37° C. for […] and optical density of surrounding media was measured at 0 hour and 2 hour.\nHMGB1 disrupts biofilms present in clinical specimens: Biofilms at chronic disease sites (e.g. CF lung), consist of multiple species and by nature are difficult to eradicate. It has been shown that anti-DNABII antibodies to disrupt biofilms present in CF sputum."}, "NTHI biofilms": {"test_system": "NTHI biofilms", "assay_type": "in vivo, chinchilla", "settings": "for reduction in CFU of NTHI: 0.2 nmol to middle ear at days 4 and 5 post-challenge, day 6, vs diluent", "description": "FIGS. 8A-8F: rHMGB1 and mHMGB1 promote biofilm resolution in an experimental otitis media model. Diluent, 0.2 nmol rHMGB1, or 0.2 nmol mHMGB1 were delivered directly to middle ears of chinchillas at 4 and 5 days post-challenge with NTHI. Animals were sacrificed 24 h later, middle ears were imaged (FIG. 8C, representative images) and, based on the criteria described in (FIG. 8A, biofilm) and (FIG. 8B, inflammation), blindly scored for presence of biofilm (FIG. 8D) and inflammation (FIG. 8F). CFU of NTH1 present in the mucosal biomass were quantified (FIG. 8E). Means and SEM are plotted. **P<0.01, ****P<0.0001.\nrHMGB1 and mHMGB1 disrupt biofilms in two distinct animal models but the inflammatory response is strongly attenuated with Cys to Ser mutations: Applicant tested both rHMGB1 and mHMGB1 for their ability to treat middle ear infection and the corresponding inflammatory response using a well-established chinchilla model of experimental OM due to NTHI49,67,68 wherein adhered mucosal biofilm formation plays a key role in pathogenesis (FIG. 8A). The middle ear of mixed sex, outbred adult chinchillas were inoculated with 1000 CFU NTHI by transbullar injection. At days 4 and 5 post-challenge, at which time there is abundant biofilm present in the middle ear space, […] of rHMGB1, mHMGB1, or diluent was delivered directly to the middle ear (2 total treatments). On day 6, animals were sacrificed and middle ears were imaged and blindly scored for biofilm that remained (FIG. 8A) and mucosal inflammation (FIG. 8B). […] In contrast, MEFs from mHMGB1-treated animals had increased anti-inflammatory cytokines [IL-4 (2-fold), IL-10 (5-fold)] […] Next, Applicant determined whether rHMGB1 or mHMGB1 could prevent or […] biofilm development. For prevention, adult C57BL/6 mice were challenged with 10^7 CFU of Bc intratracheally (i.t.), and 0.2 nmol of rHMGB1 or mHMGB1 was added simultaneously. After 18 h, mice were euthanized, and bronchoalveolar lavage (BAL) and lungs were collected. Bc formed aggregates that were readily visible in lung sections probed with Bc antibody (FIG. 7A). Tissue was homogenized and CFUs were enumerated. […] This same animal model was then used to investigate lung damage 72 h post-challenge with Bc and administration of rHMGB1 or mHMGB1. Lungs were collected and tissue was fixed, embedded in paraffin, sectioned, and stained with Haematoxylin and Eosin (H&E). […] Next, Applicant assessed the ability of rHMGB1 and mHMGB1 to treat established Bc infection. Mice were challenged as above and 0.2 nmol rHMGB1 or mHMGB1 was administered 24 h later. 48 h after treatment, mice were euthanized and BAL and lungs were collected and processed as above. […]"}}, "note": "Read-outs that look alike come from different tables or passages of the source.", "data": [{"molecule": "rHMGB1: tagless human recombinant full length HMGB1 (1-215) expressed in E. coli", "values": [{"measurement": "serum TNF elicited on their own", "setting": "serum TNF-alpha (TNF-α) [1]", "result": "neither rHMGB1, B Box, nor mB Box elicited detectable TNF"}, {"measurement": "additional pro-inflammatory signaling in LPS-primed mice", "setting": "serum TNF-alpha (TNF-α) [1]", "result": "none induced additional pro-inflammatory signaling"}, {"measurement": "amount required to induce sepsis, compared to our doses", "setting": "serum TNF-alpha (TNF-α) [2]; 4 doses in 40 h, LPS-primed mice", "result": 2, "unit": "fold"}, {"measurement": "disruption of CF sputum", "setting": "[3]", "result": "can disrupt biofilms present in CF sputum"}, {"measurement": "reduction in CFU of NTHI", "setting": "NTHI biofilms", "result": "~1000", "unit": "fold"}, {"measurement": "increased IL-1β in middle ear fluids", "setting": "NTHI biofilms; in vivo", "result": 3, "unit": "fold"}, {"measurement": "increased IL-17A in middle ear fluids", "setting": "NTHI biofilms; in vivo", "result": 2, "unit": "fold"}]}, {"molecule": "B1", "values": [{"measurement": "serum TNF elicited on their own", "setting": "serum TNF-alpha (TNF-α) [1]", "result": "neither rHMGB1, B Box, nor mB Box elicited detectable TNF"}, {"measurement": "additional pro-inflammatory signaling in LPS-primed mice", "setting": "serum TNF-alpha (TNF-α) [1]", "result": "none induced additional pro-inflammatory signaling"}, {"measurement": "amount required to induce sepsis, compared to our doses", "setting": "serum TNF-alpha (TNF-α) [2]; B Box alone", "result": "> 450", "unit": "fold"}, {"measurement": "disruption of CF sputum", "setting": "[3]", "result": "disrupted sputum effectively"}]}, {"molecule": "B2", "values": [{"measurement": "reduction in CFU of NTHI", "setting": "NTHI biofilms", "result": "~1000", "unit": "fold"}]}]}
